Assay results taken from PMC2173804.

B1: mut2 (dsDNA)
DNA 1: CTAGGCAAGGTAAGTTCTCCT
DNA 2: CTAGAGGAGAACTTACCTTGC
B2: FasL (dsDNA)
DNA 1: CTAGAATAAGTAAATAAATAA
DNA 2: CTAGTTATTTATTTACTTATT
B3: bim1 (dsDNA)
DNA 1: CTAGCTAGGGTAAACACGCCG
DNA 2: CTAGCGGCGTGTTTACCCTAG
B4: mut1 (dsDNA)
DNA 1: CTAGCTAGGGTACCCACGCCG
DNA 2: CTAGCGGCGTGGGTACCCTAG
B5: bim2 (dsDNA)
DNA 1: CTAGGCAAGGTAAACACTCCT
DNA 2: CTAGAGGAGTGTTTACCTTGC

These binders were tested against GST-FKH (FKHRL1/FOXO3a DNA-binding domain) (UniProt O43524 141-268, S253A) (assay: EMSA).
Chain of GST-FKH (FKHRL1/FOXO3a DNA-binding domain) (O43524 141-268 S253A): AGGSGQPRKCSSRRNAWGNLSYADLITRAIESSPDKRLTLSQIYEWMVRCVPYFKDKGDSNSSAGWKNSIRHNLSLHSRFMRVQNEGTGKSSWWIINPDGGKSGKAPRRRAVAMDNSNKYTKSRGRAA

Binder	binding result
B1	no binding
B2	binds
B3	binds
B4	no binding
B5	binds
